Data reported in the RNAGym collection of RNA variant scans (doi:10.1073/pnas.2313332121).

B1: TPR t1 (parent)
chain: GACCAAUCUGCCCUCAGAGCUCGAGAACAUCUUCGGAUGCAGAGGAGGCAGGCUUCGGUGGCGCGAUAGCGCCAACGUCCUCAACCUCCAAUGCAUCCCACCACAUGAUGAUGCCUGAAGAGCCUUGGUUUUUUG

Variants of: B1
Test: polymerase ribozyme fitness, log enrichment relative to wild type (log ratio); higher = more active; in vitro selection for triplet polymerase activity
Outline: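 For each subunit of a heterodimeric triplet polymerase ribozyme, a mutant library was built by PCR and transcribed, then taken through a single in vitro selection round in triplicate. Selection involved annealing to a biotinylated primer, the partner subunit and triplets, incubation frozen at −7 °C, gel excision of extended constructs, capture on streptavidin beads and RT-PCR. Genotypes were retained after Illumina sequencing of inputs and outputs only with ≥10 input reads and ≥1 read in each output. Fitness is defined as the logarithm of a genotype's enrichment relative to wild-type enrichment, using inverse-variance-weighted averages across replicates, with the logarithm taken to base 2.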

Row | Variant | polymerase ribozyme fitness (log ratio)
1 | GACCAAUCUGCCCUCAGAGCUCGAGAACAUCUUCGGAUGCAGAGGAGGCAGGCUUCGGUGGCGCGAUAACGCCAACGUCCUCAACCUCCAAUGCAUCCCACCACAUGAUGAUGCCUGAAGAGUCUUGGUUUUUUG [G69A C123U] | -0.983
2 | GACCAAUCUGCCCUCAGAGCUCGAGAACAUCUUCGGAUGCAGAGGUGGUAGGCUUCGCUAGCGCGAUAGCGCCAACGUCCUCAACCUCCAAUGCCUCCCACCACAUGAUGAGGCCUGAAGAGCCUUGGUUUAUUG [A46U C49U G58C G60A A95C U112G U132A] | -3.98
3 | GACCAAUCUGCCCUCAGAGCUCGAGAACAUCUUCGGAUGCAGAGGAGGCAGGCUUUGGUGCCGCGAUAGCGCCAACGUCCUCAACCUCCAAUGCAUCCCACCACAUGAUGAUGCCUGAAGAGCCUUGGUUUUUUG [C56U G61C] | -6.29
4 | GACCAAUCUGCCCUCAGAGCUCGAGAACAUCUUCGGAUGCAGAGGAGGCAGGCUUCGGUGGCGCGAUAGCGCCAACGUCCUCAACCUCCAAUGCAUCCCACCACAUGAUGAUGCCUGAAGAGCCUUGGUUCAUUG [U131C U132A] | -0.543
5 | GACCAAUCUGCCCUCAGAGCUCGAGAACAUCUUCGGAUGCAGAGGAGGCAGGCUUCCGAGGCGCGAUAGCGCCAACGUCCUCAACCUCCAAUGCAUCCCACCACAUGAUGAUGCCUGAAGAGCCUUGGUUUUUUG [G57C U59A] | -0.128
6 | GACCAAUCUGCCCUCAGAGCUCGAGAACAUCUUCGGAUGCAGAGGAGGCAGGCUUCGGUGGCGCGAUAGAGCCAACGUCCUCAACCUCCAAUGCAUCCCACCACAUGAUGAUGCCUGAAGAGCCUUGGUCUUUUG [C70A U130C] | -2.15
7 | GACCAAUCUGCCCUCAGAGCUCGAGAACAUCUUCGGAUGCAGAGGAGGCAGGCUUCGGCGGCGCGAUAGCGCCAACGUCCUCAACCUCCAAUGCAUCCCACCACAUCAUGAAGCCUGAAGAGCCUUGGUUUUGUG [U59C G107C U112A U133G] | -6.34
8 | GACCAAUCUGCCUUCAGAGCUCGAGAACAUCUUCCGAUGCAGAGGAGGCAGGCUUCGGUGGCGCGAUAGCGCCAACGUCCUCAACCUCCAAUGCAUCCCACCACAUGAUGAUGCCUGAAGAGCCUUGGUUUUUUG [C13U G35C] | -3.79
9 | GGCCAAUCUGCCCUCAGAGCUCGAGAACAUCUUCGGAUGCAGAGGAGGCAGGCUUCGGUGGCGCGAUGGCGCCAACGUCCUCAACCUCCAAUGCAUCCCACCACAGGAUGAUGCCUGAAGAGCCGUGGUUUUUUG [A2G A68G U106G U125G] | -5.29
10 | GACCAAUCUGCCCUCAGAGCUCGAGAACAUCUUCGGAUGCAGAGGAGGCAGGCUUCGGUGGCGCGAUAGCGACAACGUCCUCAACCUCAAAUGCAUCCCACCACAAGAUGAUGCCUGAAGAGCCUUGGUUUUUUG [C72A C89A U106A] | -2.09
11 | GACCAAUCUGCCCUCAGAGCUCGAGAACAUCUUCGGAUGUAGUGGAGGCAGGCUUCGGUGGCGCGAUAUCGCCAACGUCCUCAACCUCCAAUGCAUCCCACCACAUGAUGAUGCCUGAAGAGCCUUGGUUUUUUG [C40U A43U G69U] | 0.0551
12 | GACCAAUCUGCCCUCAGAGCUCGAGAACAUCUUCGGAUGCAGAGGAGGCAGGCUUCGGUGGCGCGAUAGCGCCAACGUCCUCAACCUCCAAUGCAUACCACCACAUGAUGAUGUCUGAAGAGCCUUGGUUUUUUG [C97A C114U] | -5.03
13 | GACCAAUCUGCCCUCAGAGCUCGAGAACAUCUUCGGAUGCAGAGUAGGCAGGCUUCGGUGGCGCGAUAACGCCAACGACCUCAACCUCCAAUGCAUCCCACCACAUGAUGAUGCCUGAAGAGCCUUCGUUUUUUG [G45U G69A U78A G127C] | -4.73
14 | GAUCAAUCUGCCCUCAGAGCUCGAGAACAUCUUCGGAUGCAGAGGAGGCAGGCUUUGGUGGCGCGAUACCGCCAAGGUCCUCAACCUCCAAUGCAUCCCACCACAUGAUGAUGCUUGAAGAGCCUUUGUUUUUUG [C3U C56U G69C C76G C115U G127U] | -4.79
15 | GACCAAUCUGCCCUCAGAGCUCGAGAACAUCUUCGGAUGCAGAGGAGGCAGGCUUCCGUGGCGCGAUAGCGCCAACGUUCUCAACCUCCAAUGCAUCCCACCACAUGAUAAUGCCUGAAGAGCCUUGGUUUUUUG [G57C C79U G110A] | -3.76
16 | GACCAAUCUGCCCUCAGAGCUCGAGAACAUCUUCGGAUGCAGAGGAGGCAGGCUUCGGUGGGGCGAUAGCGCCAACGUCCUUAACCUCCAAUGCAUCCCACCACAUGAUGAUGCCUCAAGAGCCUUGGUUUUUUG [C62G C82U G117C] | -5.97
17 | GACCAAUCUGCCCUCAGAGCUCGAGAACAUCUUCGGAUGCAGAGGAGGCAGGCUUCGGUGGCGCGAUAGCGCUAACGUCCUCAACCUCCAAUGCAUCCCACCACAUGAUGAUGCCUAAAUAGCCUUGGUUUUUUG [C73U G117A G120U] | -2.36
18 | GACAAAUCUGCCCUCAGAGCUCGAGAACAUCUUCGGAUGCAUAGGAGGCAGGCUUCGGUGGCGCGAUAUCGCCAACGUCCUCAACCUCCAAUGCAUCCCACCACAUGAUGAUGCCUGAAGAGCCUUGGUUUUUUG [C4A G42U G69U] | -1.62
19 | GACCAAUCUGCCCUCAGAGCUCGAGAACAUCUUCGGAUGCAGAGGUGGCAGGCUUCGGUGGCGCGAUAGCGCCAACGUCCUCAACCUCCAAUGCAUCCCACCACAUGAUGGUGCCUGAAGAGCCUUGGUUUUUUG [A46U A111G] | -1.48
20 | GACCACUCUGCCCUCAGAGCUCGAGAACAUCUUCGGAUGCAGAGGAGGCAGGCUUCGGUGGCGCGAUAGCGCCAACGUCCUCAAUCUCCAAUGCAUCCCAUCACAUGAUUAUGCCUGAAGAGCCUUGGUUUUUUG [A6C C85U C101U G110U] | -3.01
21 | GACCAAUCUGCCCUCAGAGCUCGAGAACAUCUUCGGUUGCAGCGGAGGCAGGCUUCGGUGGCGCGAUAGCUCCAACGUUCUCAACCUCCAAUGCAUCCCACCACAUGAUGAAGCCGGAAGAGCCUUGGUUUUUCG [A37U A43C G71U C79U U112A U116G U134C] | -6.04
